System: MS2 coat protein
Test: apparent KD of MS2 coat protein; designed switch direction (-1 OFF switch, 1 ON switch): -1; higher = weaker reporter binding
In short: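 Transcription of designed RNA switches on Illumina chips was done by stalled E. coli RNA polymerase. SNAP-549-labelled MS2 coat protein was then titrated in doubling steps from 0.7 or 1.5 nM to 3 µM, with steps of 0.8–1.5 h at the lowest and 10–20 min at the highest concentration. The per-design median over clusters of curve-fitted normalised fluorescence is reported as apparent KD.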

[1] = input ligand: microRNA oligo, concentration not stated
[2] = Eterna round: R95, input ligand: FMN 200 uM
[3] = Eterna round: R95, input ligand: microRNA oligo, concentration not stated
[4] = Eterna round: R95, input ligand: none

## AUUAAACAUGUAGGAUAUGCAUAGCAAAGCUAUGCAGAAGGACAUGAGGAUCACCCAUGUAAAAGCGUCUGAGUACAGAUGCAA [Mat - Exclusion NG 1 - Mod of JL - D89] (Eterna round: R96, puzzle: Exclusion NG 1)
Input ligand: FMN 200 uM
  apparent KD of MS2 coat protein: 402 nM
[1]
  apparent KD of MS2 coat protein: 53.2 nM
Input ligand: none
  apparent KD of MS2 coat protein: 57 nM

## AUAAUGUAAGGAUAUCAGUCGUACAGCUUCGGCUGUACGACUGAGAAGGUACAUGAGGAUCACCCAUGUGAUCA [E4/8-A1] (Eterna round: R97, puzzle: Exclusion 4)
Input ligand: FMN 200 uM
  apparent KD of MS2 coat protein: 185 nM
Input ligand: none
  apparent KD of MS2 coat protein: 1680 nM

## UAAGAUUACCGAGGAUAUGCUGGUUUCUAUUAAGCAGAAGGCGGACUCAACAUGAGGAUCACCCAUGUAAGAAGGGUAUUAGAU [Ex NG1 #9] (Eterna round: R96, puzzle: Exclusion NG 1)
Input ligand: FMN 200 uM
  apparent KD of MS2 coat protein: 89.8 nM
[1]
  apparent KD of MS2 coat protein: 82.1 nM
Input ligand: none
  apparent KD of MS2 coat protein: 94.8 nM

## GGUUUUCUUUUCCUUUCUUACAUGAGGAUCACCCAUGUUUCUUGUCGUGCUCGCGUUGCUCGUCUGUCUGUCUGUUG [salish99_TOv1_r3_076(!)] (puzzle: Sensor v3, turn-off variant 1)
[2]
  apparent KD of MS2 coat protein: 45.9 nM
[3]
  apparent KD of MS2 coat protein: 35.7 nM
[4]
  apparent KD of MS2 coat protein: 56.9 nM

## AAUAACAGAGGAUAUACUGUUUUAUGUGUUUAUUAUUUUGAACAUGAGGAUCACCCAUGUAGAAGGCUGAAUGA [JMF 63] (puzzle: Exclusion 2)
[3]
  apparent KD of MS2 coat protein: 27.6 nM

## CCUCAGUGAGGAUAUCAGUAAUGUAAGACGUACAGUCGCACUGAGAAGGUACAUGAGGAUCACCCAUGUUAGUU [Eternabot (L1) Solution 50] (Eterna round: R97, puzzle: Exclusion 4)
Input ligand: FMN 200 uM
  apparent KD of MS2 coat protein: 31.3 nM
Input ligand: none
  apparent KD of MS2 coat protein: 23 nM

## GGCGACCACCUCGUGCACUACAUGAGGAUCACCCAUGUUUUUCGCUCGUCUUAUGCGCCAACCUCCCAAACACUAAG [Gelaesxe] (puzzle: Sensor v3, turn-off variant 1)
[2]
  apparent KD of MS2 coat protein: 34.6 nM
[3]
  apparent KD of MS2 coat protein: 103 nM
[4]
  apparent KD of MS2 coat protein: 35.4 nM

## GACAAGGUGUAGGAUAUGCUUAGCCUUAAGAAAGCAGAAGGACAAACUUGAGGAUCACCCAAGUGGUCCAAACA [Diraveti] (Eterna round: R97, puzzle: Exclusion 6)
Input ligand: FMN 200 uM
  apparent KD of MS2 coat protein: 65.5 nM
Input ligand: none
  apparent KD of MS2 coat protein: 19.6 nM

## CAAAUCUGAGGAUAUCGAUUUUUGUACAUGAGGAUCACCCAUGUCCUUUUUAUUAAAUCCCGAGAAGGCAGUGUAU [JR_E5_Sub096] (puzzle: Exclusion 5)
[3]
  apparent KD of MS2 coat protein: 24.3 nM

## AUGGUACAUGAGGAUCACCCAUGUUAGGAUAUCGCGUGACCUAAAACUAAGAGACACACGAGAAGGGACGACAU (puzzle: Exclusion 1)
[3]
  apparent KD of MS2 coat protein: 77.3 nM

## UAUAAGAUAGGAUAUACAGGCCCGUCUUCAUAUCGAUCCCGACAUGAGGAUCACCCAUGUAGAAGGAUCGUGAG [Mod 21 - Jieux - Exclusion 2] (Eterna round: R97, puzzle: Exclusion 2)
Input ligand: FMN 200 uM
  apparent KD of MS2 coat protein: 13.8 nM
Input ligand: none
  apparent KD of MS2 coat protein: 13.7 nM

## GGUCCACAUGAGGAUCACCCAUGUAAUAACAUGCAGCGCAGGAAGGAUAUGCCCGAACAAAGCCAGCAGAAGGUCCAUUAACAU [Eternabot solution 7] (Eterna round: R96, puzzle: Exclusion NG 3)
Input ligand: FMN 200 uM
  apparent KD of MS2 coat protein: 166 nM
[1]
  apparent KD of MS2 coat protein: 84.5 nM
Input ligand: none
  apparent KD of MS2 coat protein: 128 nM

## GAUUAUGCGAGCUUUAGGGACAUGAGGAUCACCCAUGUUCGUCUUAUUGAUCUGGGUACGCUAACAUACCUAAAUCU [JMF 42] (puzzle: Sensor v3, turn-off variant 1)
[2]
  apparent KD of MS2 coat protein: 82.2 nM
[3]
  apparent KD of MS2 coat protein: 89.2 nM
[4]
  apparent KD of MS2 coat protein: 96.7 nM

## UCGGCGCGAGGAUAUACGUUUGCUUUUUUUCGUUUUUGUGUACAUGAGGAUCACCCAUGUAGAAGGCGCGCCGC [Apr-15 SS2-20] (puzzle: Exclusion 2)
[3]
  apparent KD of MS2 coat protein: 14.6 nM

## AGCUAGUCAGGAUAUACGCAAACGAACGAAGCAGUGAAGGGACAUGAGGAUCACCCAUGUAGAAGGGACUAGCA [Diamond 30] (Eterna round: R96, puzzle: Exclusion 2)
Input ligand: FMN 200 uM
  apparent KD of MS2 coat protein: 121 nM
[1]
  apparent KD of MS2 coat protein: 17.4 nM
Input ligand: none
  apparent KD of MS2 coat protein: 24.9 nM

## UUAUUAUAUGUAGGAUAUGCAUAUUAUUAUUGUGCAGAAGGACAUGAGGAUCACCCAUGUAUAUUAUUAUUAUAUAUUAUAUAU [Title] (Eterna round: R96, puzzle: Exclusion NG 1)
[1]
  apparent KD of MS2 coat protein: 26.5 nM

## AAUAAGCAAGGAUAUACGACGAAAAGCGUCAGUGGGCGAUGACAUGAGGAUCACCCAUGUAGAAGGUGCACAUC [Isragela] (puzzle: Exclusion 2)
[2]
  apparent KD of MS2 coat protein: 314 nM
[3]
  apparent KD of MS2 coat protein: 125 nM
[4]
  apparent KD of MS2 coat protein: 203 nM

## ACAUGAGGAUCACCCAUGUCCGGCUGGUCCGUCUCGGCUGUCGAGGAUAUGGCUCGGUGUCCGCGCUAGAAGGUGGGAGCCGGA [Aenatbe mod 75] (Eterna round: R96, puzzle: Exclusion NG 3)
Input ligand: FMN 200 uM
  apparent KD of MS2 coat protein: 56.7 nM
[1]
  apparent KD of MS2 coat protein: 45.1 nM
Input ligand: none
  apparent KD of MS2 coat protein: 93.5 nM

## GGUCAGACGGUAGGAUAUCCAUAUCGAGUGACCCUUUUAUAACAUGAGGAUCACCCAUGUCGGUGGGAGAAGGGCCGUACGGCG [salish99_ExNG02_R04_003] (Eterna round: R96, puzzle: Exclusion NG 2)
Input ligand: FMN 200 uM
  apparent KD of MS2 coat protein: 445 nM
[1]
  apparent KD of MS2 coat protein: 304 nM
Input ligand: none
  apparent KD of MS2 coat protein: 401 nM

## UGCUACGGAGGAUAUACAUGAGGAUCACCCAUGUGAUAGAUUAUCGCGAGAGCGUAAUGUAGAAGGCCGUAGCU [jl-ex3-4.12 jl mod] (Eterna round: R97, puzzle: Exclusion 3)
Input ligand: FMN 200 uM
  apparent KD of MS2 coat protein: 506 nM
Input ligand: none
  apparent KD of MS2 coat protein: 56 nM

## UUGUUGUAUGUAGGAUAUGCAUAUUAUUAUUAUGCAGAAGGACAUGAGGAUCACCCAUGUAUGUUAUUAUUAUAUGUUAUGUGU [Title] (Eterna round: R96, puzzle: Exclusion NG 1)
[1]
  apparent KD of MS2 coat protein: 32 nM

## UACAUGAGGAUCACCCAUGUUUUGUCGUGUAUGGUAUUUAUCUAGGAUAUCAAUGGAUUUAUUUAUGAGAAGGAGAAUAUUAAU [JMF's solution 38] (Eterna round: R96, puzzle: Exclusion NG 3)
Input ligand: FMN 200 uM
  apparent KD of MS2 coat protein: 39.6 nM
[1]
  apparent KD of MS2 coat protein: 25.6 nM
Input ligand: none
  apparent KD of MS2 coat protein: 32.3 nM

## AAGCGGUGAGGAUAUACAUGAGGAUCACCCAUGUGUAUGCAGAGGGCGCGGUGUUGGUGUAGAAGGCACUGGGA [EX3 B.10] (Eterna round: R97, puzzle: Exclusion 3)
Input ligand: FMN 200 uM
  apparent KD of MS2 coat protein: 23 nM
Input ligand: none
  apparent KD of MS2 coat protein: 19.4 nM

## GGUCUACAUGAGGAUCACCCAUGUAAGGAUAUCGUCACUGGAGCCUCGGCUCCAGUGACGAGAAGGUGCAUAAU [E1/11-A2] (Eterna round: R97, puzzle: Exclusion 1)
Input ligand: FMN 200 uM
  apparent KD of MS2 coat protein: 48.9 nM
Input ligand: none
  apparent KD of MS2 coat protein: 36.6 nM

## GUGCCGCGAGGAUAUACAGACGGGUCCAAAACGUGUCUCGGACUUGAGGAUCACCCAAGUAGAAGGCGUUUCAG [salish99_ex2_r4_620] (Eterna round: R97, puzzle: Exclusion 2)
Input ligand: FMN 200 uM
  apparent KD of MS2 coat protein: 18.6 nM
Input ligand: none
  apparent KD of MS2 coat protein: 18.4 nM

## CUGAGCAGACGGAGAUCCAACAUGAGGAUCACCCAUGUCUCAAAAGCUUUUUGCUCGCCUUAUCCUCCUCUGUUCUC [Ererququce] (puzzle: Sensor v3, turn-off variant 1)
[2]
  apparent KD of MS2 coat protein: 34.8 nM
[3]
  apparent KD of MS2 coat protein: 208 nM
[4]
  apparent KD of MS2 coat protein: 36.6 nM

## UUAAAAUAUGUAGGAUAUGCGUGGCGAAGCUAUGCAGAAGGACAUGAGGAUCACCCAUGUUCCUGCGUCCGCGUACGGAUGCAA [JL Eng1 1.21 mod 3] (Eterna round: R96, puzzle: Exclusion NG 1)
Input ligand: FMN 200 uM
  apparent KD of MS2 coat protein: 14.8 nM
[1]
  apparent KD of MS2 coat protein: 9.15 nM
Input ligand: none
  apparent KD of MS2 coat protein: 12.4 nM

## ACUUGUAGAGGAUAUACGAGGGCCCAAGCGGCGAGAGCCGCACAUGAGGAUCACCCAUGUAGAAGGCUACUAUU [JL-ex2-4.25 ViennaUCT mod] (Eterna round: R97, puzzle: Exclusion 2)
Input ligand: FMN 200 uM
  apparent KD of MS2 coat protein: 374 nM
Input ligand: none
  apparent KD of MS2 coat protein: 116 nM

## AGAGAGUCAGGAUAUCGAAGGUAGAGAAAAGGAGAGAGGUACGAGAAGGGACAUGAGGAUCACCCAUGUAGGUG [JR_Exclusion4)Sub014] (puzzle: Exclusion 4)
[2]
  apparent KD of MS2 coat protein: 526 nM
[3]
  apparent KD of MS2 coat protein: 286 nM
[4]
  apparent KD of MS2 coat protein: 381 nM

## CAAUAGAAAGGAUAUACAGUAGGCGUUGUGCUCGAGCACUCACAUGAGGAUCACCCAUGUAGAAGGUUCAGUUA [EX2 C.18] (Eterna round: R97, puzzle: Exclusion 2)
Input ligand: FMN 200 uM
  apparent KD of MS2 coat protein: 27.9 nM
Input ligand: none
  apparent KD of MS2 coat protein: 17.7 nM

## ACAAGCUUUUUGUUCGUCUUAUAAAAUCCUAAGAGGAUAACAUGAGGAUCACCCAUGUAACAAAGACGGACUCAUGU [Sesor Array 13 - Jieux - Sensor v3, turn-off variant 2] (puzzle: Sensor v3, turn-off variant 2)
[2]
  apparent KD of MS2 coat protein: 11.7 nM
[3]
  apparent KD of MS2 coat protein: 120 nM
[4]
  apparent KD of MS2 coat protein: 9.57 nM

## UUGAUGUCAUCAGGAUAUAGUAUUUAAGACAUAUCUUCUUUCAAACAUGAGGAUCACCCAUGUCGCUAGAAGGGAUUAUUGAUU [JR_ExcNG2_Sub083] (Eterna round: R96, puzzle: Exclusion NG 2)
[1]
  apparent KD of MS2 coat protein: 11.4 nM

## CUUGUGUCAGGAUAUGCUAAGUAUUCGUUUUACGCGUCUAGGCAGAAGGGACAUGAGGAUCACCCAUGUAACGC [EX4 B.30] (Eterna round: R97, puzzle: Exclusion 4)
Input ligand: FMN 200 uM
  apparent KD of MS2 coat protein: 172 nM
Input ligand: none
  apparent KD of MS2 coat protein: 133 nM

## AUCCAACAUGAGGAUCACCCAUGUGAGGAUAUGCCCAAAACUCUUCGAUCCGAAGAGCGCAGAAGGCACAUGAA [EX1 A.18] (Eterna round: R97, puzzle: Exclusion 1)
Input ligand: FMN 200 uM
  apparent KD of MS2 coat protein: 33.4 nM
Input ligand: none
  apparent KD of MS2 coat protein: 13.2 nM

## CUUCGACAUGAGGAUCACCCAUGUCAGGAUAUUGUGUAUCGGGUUUUUUACGGAAAGGCGAGAAGGGAUGUGUG [LRO-Excl1-09] (puzzle: Exclusion 1)
[3]
  apparent KD of MS2 coat protein: 22 nM
